The text below walks through data of patent publication US20030078373A1.

One test addresses barnase (UniProt P00648). Briefly: cell-based or functional assay.
Test [1] concerns the target IGPS (49-252) (indoleglycerol phosphate synthase lacking residues 1-48). Briefly: refolding chromatography, urea-denatured IGPS (49-252) on the fragment column, peak 1.
Test [2] shares this target. Briefly: refolding chromatography, urea-denatured IGPS (49-252) on the fragment column, peak 2 (refolded protein).
The target of test [3] is cyclophilin A (UniProt P62937). Kind of test: refolding chromatography, initially denatured cyclophilin, inactive peak.
The target of test [4] is cyclophilin A (UniProt P62937). Kind of test: refolding chromatography, initially denatured cyclophilin, active peak.

barnase, sequence (P00648 48-157 limits assumed): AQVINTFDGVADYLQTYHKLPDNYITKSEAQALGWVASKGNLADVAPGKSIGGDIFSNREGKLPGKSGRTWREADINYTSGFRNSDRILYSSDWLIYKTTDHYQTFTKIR

In the test with barnase, GroEL 191-345 had a C, factor by which EX2 mechanism exchange is catalysed by GroEL fragment (globally exchanging amide protons of barnase) of 10 fold; a C, factor by which EX2 mechanism exchange is catalysed by GroEL fragment (locally exchanging amide protons of barnase) of 5 fold; a C, factor by which EX2 mechanism exchange is catalysed by GroEL fragment (mixed amide protons of barnase) of 1 fold.
In the case of “ht-GroEL 191-345 immobilised on Ni-NTA agarose”, the Kav worked out at 1 in test [1], 1.7 in test [2], 0.38 in the test with cyclophilin A [3] and 1.43 with cyclophilin A [4].
